system: HLA class I (e.g. HLA-A2) expressing adherent 293T cells; experiment: CTL assay on reverse transfected microarray (caspase activation, fluorescent Z-VAD); type: cell-based, human; settings: HLA-matched CD8+ T cells from prostate cancer patients incubated 4 hours on array; red fluorescent signal = positive response
Description: Additional patient samples were procured for the cytotoxic T Lymphocyte (CTL) assay. […] (PBMC) were isolated from blood drawn from patients with relevant clinical parameters, and with patient consent. Clinical data generally included patent history, physiopathology, and parameters relating to prostate cancer physiology. PBMCs were collected from 6 prostate cancer patients that met the study requirements. Duplicate samples were obtained from a single patient.
The 192 selected DATAS fragments were PCR amplified out of the library vector and directionally cloned into a eukaryotic expression vector down stream from staggered start site initiation codons. This configuration allows the DATAS fragment to be expressed in all the open reading frames, which is required because the correct reading frame is not always readily apparent.
Plasmid preparations were performed and the expression vectors containing the selcted DATAS fragment clones were re-arrayed into 96 well plates, which were subsequently used to spot glass slides for use in the CTL assay previously disclosed in International Patent Application No. PTC/US2005/032392, the disclosure of which is incorporated by reference in its entirety.
A design file containing the desired microarray positions of the DATAS expression vectors was uploaded into a high resolution scanner. The expression vectors containing the DATAS fragments were mixed with gelatin and lipofectamine and then spotted in duplicate in a pattern that matched the design file uploaded into the high resolution microarray scanner. The following positive controls, negative controls and experimental samples were spotted on the array.
The spotted arrays were then overlaid with HLA class I (e.g. HLA-A2) expressing adherent 293T cells and cultured for 48-72 hours to allow cells time to express vector-encoded transcripts.
The assay for CTL reactivity was then performed by incubating HLA-matched CD8^+ T cells from normal and prostate cancer patients on cultured reverse transfected microarray slides for 4 hours. Prior to incubation with the array, T cells from normals or patients may need to be expanded in vitro, to a small or large extent, to enhance the frequency of responding T cells. An inhibitor of activated caspase, fluorescence-tagged (sulfo-Rhodamine)-Z-VAD, is present throughout the cell incubation to bind caspases that become activated when antigen expressing adherent cells on certain spots are induced to die by the CTL. The slides are then washed to remove unbound fluorescent Z-VAD and 2-color (Green and Red) fluorescence images of the microarray slides are obtained with the microarray scanner.
Analysis and confirmation of data is then determined by visual inspection of the scanned image. The success of the reverse transfection is evaluated by observing green fluorescence at EGFP vector control spots. Then the fluorescence threshold(s) are adjusted on microarray scanner as necessary to establish relevant background and positive control signal intensities. […] Using the coordinate locations for the spots, the cDNAs yielding positive responses are identified.

Row | Molecule | Patient ID with positive hit
1 | No. 18: DATAS fragment; golgi SNAP receptor complex member 2; exon extension (nucleic acid, listed as Homo sapiens) DNA: GGCCTTAGGGGCACGAGGATGTGAATCGACCTACTACTTAATATAATGGCTGTGAGAAAAGGCCTCTTTCCTTTCCTTTCCACTTTTGCTCCACCCTATCAGGAGCCAGAAAGGCCTGATGGTGACAAGGTGTGAACCGTGTGGACAGTCCTGCACACAGGGCTCACTGTGGACACCTTCCCAGGGCACGCATCAGCTGTGTGAACAAAGCCACCAAAGCCATTCTTTCCCTCCCCCGC | FRJY5
2 | No. 13: DATAS fragment; ATPase, Class V, type 10A; exon extension (nucleic acid, listed as Homo sapiens) DNA: GGAGGAGGTCGGCATCACCAGTAACAGGAATCCCTCTCCCTTTGAAGGCAGTGATGGCCAGCGACTTTGCAGTGCCGAAATTCCGATACCTGGAGAGGCTCTTGATTCTTCACGGGCATTGGTGCTACTCCCGACTTGCCAACATGGTGCTGTACTTCTTCTACAAAAACACAATGTTCGTGGGCCTCCTGTTTTGGTTCCAGTTTTTCTGTGGCTTCTCTGCATCTACCATGATTGACCAGTGGTATCTAATCTTCTTTAATCTGCTCTTCTCGTCACCTCCAACGA | MSMPB
3 | No. 6: DATAS fragment; transmembrane protease, serine 2; exon extension (nucleic acid, listed as Homo sapiens) DNA: GCCGAGGTCTTCCCTAAGGACAGGGAGACTTGTTGAGCTCCCAGTGTTGCCTGCAGCTCTCGCAGGGAGAGCACACTTCCCTCCCTGAGACCTCCACACGCACTACACAGATGGTCACAGCCCTATTCTCCAGCCCTGCCCCCGTCAGCTCATCCCAGCACCAACCCCTCTCCTGGGAAACCTGGATTCTCCTTACAACTGGCGGTGCCTGTGCTGAATGCAGCTCTGGAGTTCAGCTTCAGGGAAAGAAATTCCCAGCTCTGAAACTATAGGGCTCTATCAGTGCCATGGAATCCCCCTCTTATTCACCCAACGGCTTGGTTCTGCTGAACCAATTTCCCACTCCTCACTGAACCCCACCCAGGACACACAGGCGCCTGTTTCCCCTCTGGCATGCACACACTCTTCTGGAGCACACGCGACCCTCCCTAGGCCGCCTGCTTCTCGGCTCCCCTGCACA | EYGRT
4 | No. 5: DATAS fragment; N-acetyltransferase 6; exon extension (nucleic acid, listed as Homo sapiens) DNA: GTAAAGGCATGTGGAATCCAGGGGCAGCTTTGGCTGGCACGCAGGATCCAGAGTCAGCTCAGCTGGGCTGGTACTCAGGATCAGCTCCATCCGGTGTGTAGGGTCTAGTGTAGGGGTCAGCTTGGCTGGGCCAGGGCTCAGAGTCAGCTCTTGCCTATGCACAGGATCCAGGTTCAGCTGAGTCAGGCTGGGAGCCAAGGTCACCTGCTGCTAGGTTGCAGGTGGCTCAGTGCCAGGCTGGAGGTTAAGACCCCAGTCTCCAGGCAGTAGCATCTCTTCAGACCACAGTGGCTCTCCTCATGTTGATGCTGGCCTCTGGGATGTTCCGCGTCCTAGCTCCGCACAGCTGGGTATCTCACTCAGTCGCCACCTCGGCCTCCCAACA | EYGRT
5 | No. 8: DATAS fragment; ataxin 2-like; exon extension (nucleic acid, listed as Homo sapiens) DNA: GTAGCAGGGCAGCAGACTTGGGAGAACGCGGGGGATACATCCGGCCCACTGGAAGAAAAGGGGGAGCTGTAGGATGGTTACTGCTGGTCAACAGCAGTGAGTACAAGGGCCTTACTCAAAACAGCAAGAAAGTTTACACACTATACAACCAGAGTCACCAACTTAAATGTCTAGAAGCTCAAGGCAGGTAACACAAGCAGGTAAATGGCCTCATGGGCATCATCGACAACTGGAATGCTTAAAGGAGTGGCAGGGATTCTGTTCCAGTCAACTCAAGCTACGCAGCAAGGCAAGCTCAGTTGACAGAATTTCCTGTAATTCAAAAGAAACTAAAAATTTTCTATGGCTTCTATTGATTTATTTATTTAGAGACAGGGTATCGCTCTGTTCCCC | MSMPB
6 | No. 14: DATAS fragment; zinc finger protein 142 (clone pHZ-49); exon extension (nucleic acid, listed as Homo sapiens) DNA: CGGACCAGGACAAAATCATGACGATGCTCCATCCCAAGCCTTCCAGGTTACAAACCGCCTTTCCAGTTCGCTGGCTCTTATGATCCAGCTCCTGCCCGACGATGTGGACACTGTCATCACCTCCATTTTACAGATAGGAAAGCTGAGGCCCAGAGAAGCGAAGCGACTGTGTCTGTCCAAGACCACGCGCCCTCCTCCCTGTC | MSMPB
7 | No. 19: DATAS fragment; GenBank human mRNA AK054845; novel exon (nucleic acid, listed as Homo sapiens) DNA: GGGGACAGGCAGAGGTTGCACTGCACTCCAGCCTGGGTGACAGATCAAGATTCTGTCTCAAGTAATAATAATGATGATGATGATGATGATGATGATGATGATAATAACACACCTTGTTAATGTTAATTCACTGTGTTAAATCAATTAACTCATTTTCTCATAATTACCCTTGAACGAGTAAGTTATTGACATTCTCTCCATGGGAAAAAAAACCCTTGGAGAAAGGTAACTTGAATATGGCCAAATGGGCAATTTGGATAGAACTGGGATTTGAACCTAGGACATCTGATTCCACATCCTTTTCATGAGCCACAATGCTCTACATGTGGTTTTATTTCTTGGATCACATGTAACACATCCATAAAAGTGCCTCCCCCCG | EYGRT
8 | No. 9: DATAS fragment; protein kinase C, zeta; novel exon (nucleic acid, listed as Homo sapiens) DNA: GGGCAAAGGATGTTGCCCCTGTCCTGAAGGCTGTCGCCCGATCGCTCTATCCAAGGCTGCCCTGGGGCAGCGTCACCTGGGGGTCCTGCGGGGGCTTCTCAGCACAGCATCCAGCACTGCCACCTAGTGTGTTCCCGTCACGTCTCCTCCCCCCG | EYGRT
9 | No. 10: DATAS fragment; transferrin receptor (p90, CD71); novel exon (nucleic acid, listed as Homo sapiens) DNA: GTGGCGAGGCGGTTCGGGACGGAGGACGCGCTAGTGTTCTTCTGTGTGGCAGTTCAGAATGATGGATCAAGCTAGATCAGCATTCTCTAACTTGTTTGGTGGAGAACCATTGTCATATACCCGGTTCAGCCTGCTCTCC | MSMPB
10 | No. 21: DATAS fragment; GenBank human mRNA AK123820; exon extension (nucleic acid, listed as Homo sapiens) DNA: GGCGGCAGGTCTAATCTGGCACACTTGCTAACTTCTAATAAAGAATCAAATGGTCTTCCAACTCACATAATGACTAATTCTAAAGCATGCAACCTCAAAGTACTACATTCTCCCTGTTCTAGAAATACAACCCTAGAGGGCCAGTCTTCCTTCAGCATTCAAATATTGAGTAGAACAACTGAACTGTAAGGTTCAACTAAAGGAATGCAACTGTGACTTGAGCTGTGGAACGGCTATGGCCTAAGTCAAGAATTCTCAACCTCCCAC | EYGRT
11 | No. 11: DATAS fragment; cadherin-like 23; novel exon (nucleic acid, listed as Homo sapiens) DNA: GACACCCTAGCTGCAAGGGAGGTTAGAAAAAATGAGGGACAGGATTATCATGGTCAGCATATTACTTGGGGGCCAGATATATCACTTCCCACACAAAAGCAGGCCTCTGTCAGTGAGGAAGAAGTGGAGAATGGATTTGGGGTGGGCATCTGACAGCATTTGCCACACTGCCCTCCCCAATCCTAATGCAGGCCAGTCAACGCACCACCCCCACTCCCCACCCACACTCCAACCCCCACAGTCCTAGGGTCTCTCAGGGAGACCATCGGTGGAATCCATAACATTCTAAGACCCTGCAGTTTGTAGGCAAAATCAGGCTTCCTTTGGGTGCCCCCG | MSMPB; P72
12 | No. 15: DATAS fragment; GenBank Human mRNA AF116698 (intronic hit); genomic hit (nucleic acid, listed as Homo sapiens) DNA: CGGCGCACCTGGTACGTGGTGTATGTTCCATTTGTGCTGGCCACGGTGATGATGATGATGATGCCATCTCTCCGGCTACACTGCGAGCACAGATCACAGCTCTCTGTAGCTGATGCTGGCTCTACCCACTGTATTCGGG | MSMPB

— patent US20120141376A1, “PROSTATE SPECIFIC TRANSCRIPTS AND THE USE THEREOF FOR PROSTATE CANCER THERAPEUTICS AND DIAGNOSTICS” (priority 2006, published 2012)
